pKd data for 5 molecules are collected here from article PMC9482650, “Quantitative fragmentomics allow affinity mapping of interactomes” (Nature Communications, 2022).

Targets include PTPN3, P26045; MAGI1_2, Q96QZ7; IL16_1, Q14005; Inadl_8, Q8NI35; TJP1_2, Q07157; CASK, O14936; NHERF4_4, Q86UT5; LNX1_1, Q8TBB1; GRIP2_5, Q9C0E4; HTRA2, O43464; DLG4_3, P78352; GORASP2, Q9H8Y8.
What all share (assay): holdup assay
What all share (set-up): key: below the threshold = too weak to quantify, mostly under pKd 3.1 to 4

The target of another assay is T1, TX1BP3, O14907.
T1 sequence (O14907 10-122, limits assumed, looked up): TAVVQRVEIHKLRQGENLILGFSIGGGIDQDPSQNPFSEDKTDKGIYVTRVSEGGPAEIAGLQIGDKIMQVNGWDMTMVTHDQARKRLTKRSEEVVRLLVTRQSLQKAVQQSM

The next assay has as its target T2, PDZD7_3, Q9H5P4.
T2 sequence (Q9H5P4 857-944, limits assumed, looked up): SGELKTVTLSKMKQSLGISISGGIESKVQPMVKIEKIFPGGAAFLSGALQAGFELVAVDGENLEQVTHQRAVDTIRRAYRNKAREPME

Another assay deals with T3, DLG3_1, Q92796.
T3 sequence (Q92796 125-227, limits assumed, looked up): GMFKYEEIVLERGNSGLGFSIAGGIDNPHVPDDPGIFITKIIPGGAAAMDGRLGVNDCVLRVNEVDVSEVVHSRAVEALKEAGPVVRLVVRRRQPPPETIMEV

Another assay has as its target T4, SYNJ2BP, P57105.
T4 sequence (P57105 8-110, limits assumed, looked up): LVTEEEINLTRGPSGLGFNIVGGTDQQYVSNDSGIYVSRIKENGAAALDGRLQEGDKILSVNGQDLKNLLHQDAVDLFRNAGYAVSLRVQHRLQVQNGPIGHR
Particulars: plain residues with an end cap or a label only (N-terminal biotin on a linker: ttds).

The next assay has as its target T5, MPDZ_5, O75970.
T5 sequence (O75970 695-796, limits assumed, looked up): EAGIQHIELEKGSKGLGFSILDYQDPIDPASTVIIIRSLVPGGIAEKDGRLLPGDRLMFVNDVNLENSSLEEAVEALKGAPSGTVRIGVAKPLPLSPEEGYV
Conditions: plain residues with an end cap or a label only (N-terminal biotin on a linker: ttds).

Another assay deals with GRID2IP_1, A4D2P6. Conditions: plain residues with an end cap or a label only (N-terminal biotin on a linker: ttds).
The target in a further assay is T6, SNTG1, Q9NSN8.
T6 sequence (Q9NSN8 52-150, limits assumed, looked up): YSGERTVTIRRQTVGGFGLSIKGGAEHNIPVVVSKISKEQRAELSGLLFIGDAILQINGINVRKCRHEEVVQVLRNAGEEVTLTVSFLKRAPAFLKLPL
Particulars: plain residues with an end cap or a label only (N-terminal biotin on a linker: ttds).

A further assay addresses GRIP2_3, Q9C0E4. Conditions: plain residues with an end cap or a label only (N-terminal biotin on a linker: ttds).
For the next assay, the target named is GORASP1, Q9BQQ3. Particulars: plain residues with an end cap or a label only (N-terminal biotin on a linker: ttds).
The target of another assay is T7, DFNB31_2, Q9P202.
T7 sequence (Q9P202 274-371, limits assumed, looked up): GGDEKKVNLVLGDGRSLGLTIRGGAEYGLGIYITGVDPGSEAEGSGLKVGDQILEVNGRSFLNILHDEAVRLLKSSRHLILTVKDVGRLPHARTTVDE
Conditions: plain residues with an end cap or a label only (N-terminal biotin on a linker: ttds).

In a further assay the target is T8, MPDZ_10, O75970.
T8 sequence (O75970 1624-1722, limits assumed, looked up): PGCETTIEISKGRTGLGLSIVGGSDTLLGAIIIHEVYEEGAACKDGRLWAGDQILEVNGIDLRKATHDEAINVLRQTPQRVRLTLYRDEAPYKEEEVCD
Particulars: plain residues with an end cap or a label only (N-terminal biotin on a linker: ttds).

In the next assay the target is FRMPD2_3, Q68DX3. Conditions: plain residues with an end cap or a label only (N-terminal biotin on a linker: ttds).
The target of the next assay is T9, GRIP1_3, Q9Y3R0.
T9 sequence (Q9Y3R0 247-346, limits assumed, looked up): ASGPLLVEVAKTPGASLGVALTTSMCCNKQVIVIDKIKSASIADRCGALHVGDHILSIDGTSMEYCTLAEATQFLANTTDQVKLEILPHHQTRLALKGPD
Particulars: plain residues with an end cap or a label only (N-terminal biotin on a linker: ttds).

The next assay addresses T10, APBA2_2, Q99767.
T10 sequence (Q99767 654-744, limits assumed, looked up): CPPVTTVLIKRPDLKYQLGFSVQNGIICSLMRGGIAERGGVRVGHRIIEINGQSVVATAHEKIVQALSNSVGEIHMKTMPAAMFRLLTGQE
Conditions: plain residues with an end cap or a label only (N-terminal biotin on a linker: ttds).

The next assay deals with IL16_3, Q14005. Conditions: plain residues with an end cap or a label only (N-terminal biotin on a linker: ttds).
A further assay concerns the target PDZRN4_1, Q6ZMN7. Particulars: plain residues with an end cap or a label only (N-terminal biotin on a linker: ttds).
The mark [1] stands for this setting: plain residues with an end cap or a label only (N-terminal biotin on a linker: ado-ado).
The mark [2] stands for this setting: plain residues with an end cap or a label only (N-terminal biotin on a linker: ttds).

Chain of IL16_3, Q14005 (Q14005 1107-1207): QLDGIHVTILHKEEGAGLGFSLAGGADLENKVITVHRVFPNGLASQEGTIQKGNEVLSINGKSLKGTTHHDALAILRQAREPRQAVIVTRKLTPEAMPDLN
Chain of PTPN3, P26045 (P26045 505-587): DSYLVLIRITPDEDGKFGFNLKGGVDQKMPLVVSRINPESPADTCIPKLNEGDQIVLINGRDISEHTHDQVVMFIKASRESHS
Chain of GRIP2_5, Q9C0E4 (Q9C0E4 544-642): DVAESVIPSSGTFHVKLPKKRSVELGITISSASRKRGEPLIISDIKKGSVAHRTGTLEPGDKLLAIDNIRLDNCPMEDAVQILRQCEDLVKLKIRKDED
Chain of GRID2IP_1, A4D2P6 (A4D2P6 1-87): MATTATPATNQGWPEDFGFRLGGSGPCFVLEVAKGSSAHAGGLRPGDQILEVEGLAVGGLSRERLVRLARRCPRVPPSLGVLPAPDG
Chain of PDZRN4_1, Q6ZMN7 (Q6ZMN7 213-318): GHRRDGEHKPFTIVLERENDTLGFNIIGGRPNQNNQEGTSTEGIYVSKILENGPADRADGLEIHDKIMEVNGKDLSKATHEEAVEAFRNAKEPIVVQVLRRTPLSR
Chain of Inadl_8, Q8NI35 (Q8NI35 1425-1530): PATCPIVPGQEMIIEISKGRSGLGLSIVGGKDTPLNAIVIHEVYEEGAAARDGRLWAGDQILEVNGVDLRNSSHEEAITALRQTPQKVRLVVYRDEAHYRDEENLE
Chain of CASK, O14936 (O14936 487-570): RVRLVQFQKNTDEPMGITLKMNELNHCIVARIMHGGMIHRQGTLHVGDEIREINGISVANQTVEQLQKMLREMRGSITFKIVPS
Chain of GORASP1, Q9BQQ3 (Q9BQQ3 1-208): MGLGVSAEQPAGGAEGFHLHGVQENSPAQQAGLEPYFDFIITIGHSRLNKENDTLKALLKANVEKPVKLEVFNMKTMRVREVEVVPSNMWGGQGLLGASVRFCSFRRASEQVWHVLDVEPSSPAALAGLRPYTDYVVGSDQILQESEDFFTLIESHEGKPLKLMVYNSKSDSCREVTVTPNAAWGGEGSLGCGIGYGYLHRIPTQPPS
Chain of NHERF4_4, Q86UT5 (Q86UT5 464-550): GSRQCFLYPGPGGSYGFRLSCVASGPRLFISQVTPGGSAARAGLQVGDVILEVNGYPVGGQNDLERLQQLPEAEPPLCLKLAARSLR
Chain of GRIP2_3, Q9C0E4 (Q9C0E4 238-339): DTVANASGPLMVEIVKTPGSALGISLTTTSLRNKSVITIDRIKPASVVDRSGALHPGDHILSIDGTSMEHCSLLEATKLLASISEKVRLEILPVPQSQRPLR
Chain of TJP1_2, Q07157 (Q07157 181-274): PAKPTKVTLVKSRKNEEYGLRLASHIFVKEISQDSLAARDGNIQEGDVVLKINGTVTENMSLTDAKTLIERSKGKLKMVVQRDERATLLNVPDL
Chain of LNX1_1, Q8TBB1 (Q8TBB1 261-371): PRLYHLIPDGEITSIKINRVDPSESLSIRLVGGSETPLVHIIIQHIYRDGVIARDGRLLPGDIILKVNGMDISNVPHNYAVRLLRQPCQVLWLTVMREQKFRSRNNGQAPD
Chain of IL16_1, Q14005 (Q14005 210-306): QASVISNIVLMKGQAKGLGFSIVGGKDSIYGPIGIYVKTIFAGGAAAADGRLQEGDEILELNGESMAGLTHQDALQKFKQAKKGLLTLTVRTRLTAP
Chain of FRMPD2_3, Q68DX3 (Q68DX3 1073-1166): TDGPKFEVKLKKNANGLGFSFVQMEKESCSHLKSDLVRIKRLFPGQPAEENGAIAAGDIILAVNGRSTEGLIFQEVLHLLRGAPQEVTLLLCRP
Chain of DLG4_3, P78352 (P78352 306-403): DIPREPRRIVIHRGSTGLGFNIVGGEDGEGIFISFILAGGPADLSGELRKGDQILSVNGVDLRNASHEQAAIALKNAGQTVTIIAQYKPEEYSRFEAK
Chain of HTRA2, O43464 (O43464 355-458): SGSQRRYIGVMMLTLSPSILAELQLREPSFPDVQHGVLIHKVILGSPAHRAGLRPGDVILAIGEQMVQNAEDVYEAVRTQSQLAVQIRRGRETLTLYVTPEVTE
Chain of MAGI1_2, Q96QZ7 (Q96QZ7 456-580): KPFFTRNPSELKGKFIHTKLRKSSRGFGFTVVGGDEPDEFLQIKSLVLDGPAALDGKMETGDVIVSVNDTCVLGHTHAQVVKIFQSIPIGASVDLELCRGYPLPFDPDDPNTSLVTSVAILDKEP

One may read the pKd as −log10 of the Kd, conventionally taken in molar units. Take KRPEMTSSSV [MUC3B, MUC3A, Q02505;Q9H195]: the pKd with PTPN3, P26045 (setting [1]) is 4.55; in the assay with MAGI1_2, Q96QZ7 (setting [1]) it was “below the threshold”; with IL16_1, Q14005 (setting [1]), 3.94; with TX1BP3, O14907 (setting [1]), 4.5; with Inadl_8, Q8NI35 (setting [1]) it was 4.63; with PDZD7_3, Q9H5P4 (setting [1]) it was “below the threshold”. The pKd entry with TJP1_2, Q07157 (setting [1]) is “below the threshold”; with DLG3_1, Q92796 (setting [1]), “below the threshold”; with CASK, O14936 (setting [1]), “below the threshold”; with NHERF4_4, Q86UT5 (setting [1]), “below the threshold”.

Regarding SRPQRTQTQV [HPV67-E6, A4U7F2], the pKd result is “below the threshold” with LNX1_1, Q8TBB1 (setting [2]); 3.95 in the assay with PTPN3, P26045 (setting [2]); “below the threshold” with GRIP2_5, Q9C0E4 (setting [2]); “below the threshold” in the assay with HTRA2, O43464 (setting [2]); 5.22 with MAGI1_2, Q96QZ7 (setting [2]); “below the threshold” with IL16_1, Q14005 (setting [2]). The pKd is 4.4 with SYNJ2BP, P57105; “below the threshold” with MPDZ_5, O75970; “below the threshold” with GRID2IP_1, A4D2P6; “below the threshold” with SNTG1, Q9NSN8; “below the threshold” with GRIP2_3, Q9C0E4; 4.03 in the assay with TX1BP3, O14907 (setting [2]). For the same molecule, the pKd result with GORASP1, Q9BQQ3 is “below the threshold”; in the assay with DFNB31_2, Q9P202, “below the threshold”; with Inadl_8, Q8NI35 (setting [2]) it was “below the threshold”; with MPDZ_10, O75970 it was 3.4; with PDZD7_3, Q9H5P4 (setting [2]) it was 3.65; with FRMPD2_3, Q68DX3, “below the threshold”. Also, the pKd entry with GRIP1_3, Q9Y3R0 is “below the threshold”; with TJP1_2, Q07157 (setting [2]) it was “below the threshold”; in the assay with APBA2_2, Q99767 it was “below the threshold”; with DLG3_1, Q92796 (setting [2]), 3.89; in the assay with CASK, O14936 (setting [2]) it was “below the threshold”; with IL16_3, Q14005 it was “below the threshold”. The pKd is 4.23 with DLG4_3, P78352 (setting [2]); 3.82 with PDZRN4_1, Q6ZMN7; “below the threshold” with NHERF4_4, Q86UT5 (setting [2]); “below the threshold” with GORASP2, Q9H8Y8 (setting [2]).

On to RSLEEEESQL [GRASP, Q7Z6J2], for which the pKd entry with LNX1_1, Q8TBB1 (setting [2]) is “below the threshold”; with PTPN3, P26045 (setting [2]), 4.83; with GRIP2_5, Q9C0E4 (setting [2]), “below the threshold”; with HTRA2, O43464 (setting [2]), 3.69; with MAGI1_2, Q96QZ7 (setting [2]) it was “below the threshold”; in the assay with IL16_1, Q14005 (setting [2]), “below the threshold”. Moreover, the pKd with SYNJ2BP, P57105 was 3.86; with MPDZ_5, O75970, 3.53; in the assay with GRID2IP_1, A4D2P6, “below the threshold”; with SNTG1, Q9NSN8, 3.86; with GRIP2_3, Q9C0E4 it was “below the threshold”; with TX1BP3, O14907 (setting [2]) it was 3.84. The pKd in the assay with GORASP1, Q9BQQ3 was 3.72; with DFNB31_2, Q9P202 it was 3.83; in the assay with Inadl_8, Q8NI35 (setting [2]), 3.71; in the assay with MPDZ_10, O75970, “below the threshold”; with PDZD7_3, Q9H5P4 (setting [2]) it was 3.98; with FRMPD2_3, Q68DX3, 4.08. Besides, the pKd entry with GRIP1_3, Q9Y3R0 is “below the threshold”; with TJP1_2, Q07157 (setting [2]), “below the threshold”; with APBA2_2, Q99767, “below the threshold”; in the assay with DLG3_1, Q92796 (setting [2]) it was 3.6; with CASK, O14936 (setting [2]), “below the threshold”; with IL16_3, Q14005 it was “below the threshold”. Moreover, the pKd with DLG4_3, P78352 (setting [2]) is 3.75; with PDZRN4_1, Q6ZMN7, 4.17; in the assay with NHERF4_4, Q86UT5 (setting [2]), “below the threshold”; in the assay with GORASP2, Q9H8Y8 (setting [2]), “below the threshold”.

On to KSRVAFFEEL [NF2, P35240], for which the pKd with LNX1_1, Q8TBB1 (setting [1]) came out at 3.73; with GRIP2_5, Q9C0E4 (setting [1]), 3.54; with HTRA2, O43464 (setting [1]), 3.61; in the assay with MAGI1_2, Q96QZ7 (setting [1]), 3.53; with IL16_1, Q14005 (setting [1]), 3.5; with TJP1_2, Q07157 (setting [1]) it was 3.51. In addition, the negative-log Kd (pKd) with DLG3_1, Q92796 (setting [1]) was 3.58; with DLG4_3, P78352 (setting [1]), 3.52; in the assay with GORASP2, Q9H8Y8 (setting [1]), 3.87.

In the case of SVWLRKETRV [CYSLTR2, Q9NS75], the pKd with LNX1_1, Q8TBB1 (setting [2]) was 3.59; with PTPN3, P26045 (setting [2]), 4.68; in the assay with GRIP2_5, Q9C0E4 (setting [2]) it was “below the threshold”; with HTRA2, O43464 (setting [2]) it was 3.5; in the assay with MAGI1_2, Q96QZ7 (setting [2]), 5.63; with IL16_1, Q14005 (setting [2]), 3.92. The pKd with SYNJ2BP, P57105 is 5.38; with MPDZ_5, O75970 it was 3.36; with GRID2IP_1, A4D2P6 it was “below the threshold”; with SNTG1, Q9NSN8, 4.43; with GRIP2_3, Q9C0E4, “below the threshold”; with TX1BP3, O14907 (setting [2]), 4.75. For the same molecule, the pKd with GORASP1, Q9BQQ3 was found to be 3.7; with DFNB31_2, Q9P202, 3.73; with Inadl_8, Q8NI35 (setting [2]), 4.55; with MPDZ_10, O75970, 3.92; with PDZD7_3, Q9H5P4 (setting [2]) it was 4.86; with FRMPD2_3, Q68DX3, 3.57. In addition, the pKd entry in the assay with GRIP1_3, Q9Y3R0 was “below the threshold”; with TJP1_2, Q07157 (setting [2]), “below the threshold”; in the assay with APBA2_2, Q99767, “below the threshold”; with DLG3_1, Q92796 (setting [2]), 4.41; in the assay with CASK, O14936 (setting [2]), “below the threshold”; with IL16_3, Q14005, “below the threshold”. Also, the pKd with DLG4_3, P78352 (setting [2]) was 6.55; with PDZRN4_1, Q6ZMN7, 4.76; with NHERF4_4, Q86UT5 (setting [2]), “below the threshold”; in the assay with GORASP2, Q9H8Y8 (setting [2]), 4.01.
